Paper PMC6332680

Tests used:
[1] = target: E. coli ribose-phosphate pyrophosphokinase (EcKPRS) (E. coli (strain K12)); experiment: SEC; size exclusion chromatography, data not shown
[2] = target: E. coli ribose-phosphate pyrophosphokinase (EcKPRS) (E. coli (strain K12)); experiment: crystal structure; 2.22 Å, space group C222_(1), three molecules in the asymmetric unit; hexamer from 3 molecules of the asymmetric unit and 3 symmetry related molecules; crystallised with 0.2 M magnesium chloride, 0.1 M HEPES pH 7.5, 30% PEG 400, 1 mM ADP, 291 K

Substance: E. coli ribose-phosphate pyrophosphokinase (EcKPRS) (enzyme)
- stoichiometry N [1]: 6
- stoichiometry N [2]: 6
